Experimental findings from PMC314469, “Protein Interaction Networks by Proteome Peptide Scanning” (PLoS Biology, 2004) are described below.

In experiment [1] the target is endophilin SH3 (SH3G2_HUMAN), Q99962. Kind of experiment: SPOT array.
The target of experiment [2] is T1, amphyphisin SH3 (AMPH_HUMAN), P49418.
T1 chain: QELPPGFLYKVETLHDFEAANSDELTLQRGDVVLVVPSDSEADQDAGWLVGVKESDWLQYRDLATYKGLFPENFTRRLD
Briefly: SPOT array.

As for PSNPPPRPPAEARK [P13498 150-164], the figures for the normalised SPOT signal, Boehringer light units (BLU); mean over the file's lines of this peptide in experiment [1] and in experiment [2] were 991 and 182, respectively.
The corresponding values for PSIIFRRPEEAALS [Q9BZD6 162-175] are 48.3 and 34.1.
For PSGHIKRPMNAFMV [Q06945 55-68], the normalised SPOT signal, Boehringer light units (BLU); mean over the file's lines of this peptide in experiment [1] was determined as 75.8; in experiment [2] it was 47.9.
For the molecule PRVDPYRPVRLPMQ [Q93074 1800-1813], the figures for the normalised SPOT signal, Boehringer light units (BLU); mean over the file's lines of this peptide in experiment [1] and in experiment [2] were 175 and 327, respectively.
Take PRPPPGKPPTRPGV [O94932 475-489]: the normalised SPOT signal, Boehringer light units (BLU); mean over the file's lines of this peptide in experiment [1] was 1540; in experiment [2], 225.
Consider PSMDFNRPGKRAPW [Q9UFP0 807-820], for which the normalised SPOT signal, Boehringer light units (BLU); mean over the file's lines of this peptide in experiment [1] came out at 460; in experiment [2], 77.6.
The corresponding values for PRPSPARPKKSEES [O94836 564-577] are 265 and 101.
The corresponding values for PRPTPRRPRPRLAR [Q9GZW5 261-274] are 1950 and 928.
The corresponding values for PSDHIKRPMNAFMV [O95416 4-17] are 85 and 16.2.
With PRPLPPRPPAAQPR [P58840 142-156], the normalised SPOT signal, Boehringer light units (BLU); mean over the file's lines of this peptide is 7560 in experiment [1] and 2770 in experiment [2].
The corresponding values for PSLLPPRPPPALSL [Q9NRR6 185-199] are 5800 and 82.9.
The corresponding values for PSGPPARPSRSMWD [Q9NXK1 363-376] are 2740 and 3350.
As for ASPRLRRPKSPKLP [Q96DR7 104-117], the normalised SPOT signal, Boehringer light units (BLU); mean over the file's lines of this peptide in experiment [1] stood at 35; in experiment [2], 110.
As for PRPLPPRPPAAQPP [P10323 331-345], the normalised SPOT signal, Boehringer light units (BLU); mean over the file's lines of this peptide stood at 3120 in experiment [1] and 1540 in experiment [2].
With PRRRPGRPRKLPRL [Q9H4Z2 347-360], the values for the normalised SPOT signal, Boehringer light units (BLU); mean over the file's lines of this peptide in experiment [1] and in experiment [2] were 96 and 32.5, respectively.
For PRQLLTRPHKAEDF [Q99973 2038-2051], the normalised SPOT signal, Boehringer light units (BLU); mean over the file's lines of this peptide in experiment [1] was 198; in experiment [2], 104.
As for ASNQPKRPPAAPEN [P48634 118-131], the figures for the normalised SPOT signal, Boehringer light units (BLU); mean over the file's lines of this peptide in experiment [1] and in experiment [2] were 51 and 38.1, respectively.
For the molecule ASPSLERPEKGAGK [Q13601 2-15], the values for the normalised SPOT signal, Boehringer light units (BLU); mean over the file's lines of this peptide in experiment [1] and in experiment [2] were 175 and 15, respectively.
The corresponding values for PSPALPRPSRSSPG [Q9UPX1 609-622] are 2060 and 778.
In the case of PSESLPRPRRPLPT [Q9P0U4 228-241], the normalised SPOT signal, Boehringer light units (BLU); mean over the file's lines of this peptide amounted to 405 in experiment [1] and 264 in experiment [2].
For the molecule PRPGPSRPPPVPAP [Q9Y2G0 18-32], the normalised SPOT signal, Boehringer light units (BLU); mean over the file's lines of this peptide in experiment [1] was 1900; in experiment [2], 137.
Consider PSNPIRRPISADSA [Q00610 58-71], for which the normalised SPOT signal, Boehringer light units (BLU); mean over the file's lines of this peptide in experiment [1] turned out to be 47.5; in experiment [2] it was 35.4.
The corresponding values for PSARPARPPRVRGP [O60342 30-44] are 21500 and 16100.
PRKYPNRPSKTPVH [P11161 323-336]: the results for the normalised SPOT signal, Boehringer light units (BLU); mean over the file's lines of this peptide in experiment [1] and in experiment [2] were 57.5 and 109, respectively.
The corresponding values for PRQPPSRPPRRPPW [Q99785 93-107] are 8300 and 6780.
The corresponding values for PSLRPLKPPPPPRQ [Q96DL6 53-67] are 4590 and 876.
The corresponding values for PSDLPKKPPKPEFG [Q96QH2 28-42] are 258 and 16.4.
Regarding PRKLPSRPPPHYPG [O75923 185-199], the results for the normalised SPOT signal, Boehringer light units (BLU); mean over the file's lines of this peptide in experiment [1] and in experiment [2] were 2340 and 640, respectively.
The corresponding values for PRRGPPRPPGLPYP [AAH31882 46-60] are 7980 and 1100.
The corresponding values for PRPRPRRPRQLTRA [Q9HAM8 17-30] are 206 and 72.2.
The corresponding values for PRKYPNRPSKTPLH [Q06889 258-271] are 51.5 and 79.9.
As for PSAPPAKPPSTQRA [O60904 189-203], the normalised SPOT signal, Boehringer light units (BLU); mean over the file's lines of this peptide in experiment [1] is 254; in experiment [2] it was 53.9.
The corresponding values for PRLRPMRPPPPPPA [Q9NXX8 675-689] are 4660 and 1860.
Turning to PRSVFLRPQRNLES [Q9Y2L9 614-627], the values for the normalised SPOT signal, Boehringer light units (BLU); mean over the file's lines of this peptide in experiment [1] and in experiment [2] were 211 and 3830, respectively.
For PRRPPPRPPSRLSM [Q9BVH8 778-792], the normalised SPOT signal, Boehringer light units (BLU); mean over the file's lines of this peptide came to 32000 in experiment [1] and 27600 in experiment [2].
For PSPGPSRPPHGTQA [P43681 443-457], the normalised SPOT signal, Boehringer light units (BLU); mean over the file's lines of this peptide in experiment [1] came out at 128; in experiment [2], 47.
Turning to PRTLPRRPYKVLLA [O75064 398-411], the normalised SPOT signal, Boehringer light units (BLU); mean over the file's lines of this peptide in experiment [1] stood at 865; in experiment [2], 109.
Regarding PSFHIKRPAPRPLA [O60890 702-715], the results for the normalised SPOT signal, Boehringer light units (BLU); mean over the file's lines of this peptide in experiment [1] and in experiment [2] were 61.1 and 18.2, respectively.
